Tests used:
demyelination model mice = assay: Ladder walk test of hindlimb motor function in demyelination model mice (Example 7); type: in vivo, C57BL/6j mice; conditions: FGF21 administered as in Example 5, FIG. 7
Procedure: Demyelination model mice were created, and recombinant FGF21 was administered, as in Example 5 above. The hindlimb motor function of the mice was examined by performing the ladder walk test. A 1-m long ladder was installed in a position at a height of 15 cm. The mice were allowed to walk on the ladder with random widths of 0.6, 1.2, and 1.8 cm. The number of missed steps was counted, and the proportion (%) of the number of missed steps relative to the total number of steps was calculated. This experiment conducted the study using three mice for each group.

[1] = tested on: oligodendrocyte precursor cells in brain contusion model mice; assay: PDGFRα and Ki67 double-positive cells in brain tissue of brain contusion model mice (Example 9); type: in vivo, C57BL/6j mice; conditions: continuous intraventricular administration 50 ng/kg body weight per day for 1 week, vs vehicle, FIG. 9
Procedure: Anesthetized C57BL/6j mice (female, 7-week-old) were fixed onto a brain stereotaxic apparatus (Narishige). A midline incision was made in the scalp, the fascia was removed, and the skull was exposed. A craniotomy was performed through a 4-mm diameter circle centered at 2 mm lateral to the bregma. A 3-mm diameter chip was connected to the Pneumatic Impact Device (AmScien Instruments) to create a brain contusion. The parameters for imparting impact were as follows: speed: […], depth: 1 mm, and duration: 120 msec.
Osmotic pumps (ALZET) were filled with an FGF21-containing solution prepared by diluting recombinant FGF21 (R&D) in saline solution. A cannula was attached to the tip of each osmotic pump, and the cannula tip was further connected to a Brain infusion kit (ALZET) to continuously administer the FGF21-containing solution into the ventricles. The FGF21-containing solution was administered for 1 week at a dose of 50 ng/kg body weight of FGF21 per day. […] The sections were immunostained using an anti-PDGFRα antibody and an anti-Ki67 antibody, and the number of PDGFRα and Ki67 double-positive cells in the sections was counted. As a control, a saline solution containing 0.5% BSA (Vehicle) was used, and the number of PDGFRα and Ki67 double-positive cells was counted under the same conditions as those described above. […]

B1: FGF21: Recombinant fibroblast growth factor 21 (R&D); the claimed active ingredient promoting oligodendrocyte precursor cell proliferation (protein, listed as Homo sapiens)
chain: MDSDETGFEHSGLWVSVLAGLLLGACQAHPIPDSSPLLQFGGQVRQRYLYTDDAQQTEAHLEIREDGTVGGAADQSPESLLQLKALKPGVIQILGVKTSRFLCQRPDGALYGSLHFDPEACSFRELLLEDGYNVYQSEAHGLPLHLPGNKSPHRDPAPRGPARFLPLPGLPPALPEPPGILAPQPPDVGSSDPLSMVGPSQGRSPSYAS
In the case of B1, the “number of missed steps on the ladder” value (demyelination model mice) is reported as “decreased” and the “number of PDGFRα and Ki67 double-positive cells” value [1] is reported as “increased”.

— US10293026B2, “Agent for preventing or treating demyelinating disease” (Osaka University, priority 2014, dated 2019)
